# Assay results taken from the DeepSol protein solubility set.
# Assay: soluble on expression in E. coli; label from the status in PepcDB or PDB records
row,Sequence,soluble on expression in E. coli
1,GMVVNESMYQLGSVRSAIRELFEYGKKRAAIVGKENVYDFSIGNPSIPAPQIVNDTIKELVTDYDSVALHGYTSAQGDVETRAAIAEFLNNTHGTHFNADNLYMTMGAAASLSICFRALTSDAYDEFITIAPYFPEYKVFVNAAGARLVEVPADTEHFQIDFDALEERINAHTRGVIINSPNNPSGTVYSEETIKKLSDLLEKKSKEIGRPIFIIADEPYREIVYDGIKVPFVTKYYDNTLVCYSYSKSLSLPGERIGYVLVPDEVYDKAELYAAVCGAGRALGYVCAPSLFQKMIVKCQGATGDINAYKENRDLLYEGLTRIGYHCFKPDGAFYMFVKALEDDSNAFCEKAKEEDVLIVAADGFGCPGWVRISYCVDREMIKHSMPAFEKIYKKYNK,soluble
2,MGSDKIHHHHHHMAYADKKLYTDAGFTLERGEHLGIVGQNGAGKSTLIKILTGKVLPIAGRVEWKKKIQIGYLDQYADIPSGMSLIDFLHTAYSDLYDKEKKMTDLYSKYAELVDDKLLERATRFQNELDAADFYSIDNNVEQVITGLGLDSIGRDHIISEMSGGQRAKIILAKLLLEGNDVIILDEPTNYLDVSHIKWLEGYLQNYDGAALIISHDFDFLNNVANVILDVSFNTLTKYRGNFDQAMRQKTEKTEQQLRAYNKQQEVIKKTKTFIQKNKARASTTGRAKSREKMLAHMDIIEPPQTNPKATFKFPYIESQSTDALKAERLVVGYDPKKPVLNPITFSMSSGDKIVFTGFNGAGKSTLIKTLLGILPAISGKSKFSPSAKTNYFDQDLIWDDDKKTPLQIMQAAYPLEEQKQLRQRLGAAGINADNATKQMCLLSGGEQTKVKLALMELTPSNFLILDEPTNHLDEATKNSLKKAIQKFDGSLILVTHERSFYEGWIDKVIDIASMSNMQPGEVEE,not soluble
3,MGSDKIHHHHHHMKFNIKSVKNYRLPMSWQHIQKGTMYCSLINEFFADWFQKVLGDQWLMIGGLSAELELNLPLRHKIILMPEMTKNPTALFPANQNVTEEISLIQADPLQLPFVQQSIHACVLANTLNFTQHSHQLLGEIARVLENDGYLFISLFNPYSPLIFKQNLNHKNQTALPFKQYFTWRILDWIKLLNFEILDQVNLSEKKQQDCFSPLTLIVAQKRTYPFPLYKIKNKIVPYQSFQFMGENTKNAT,not soluble
4,AHHHHHHGSDSIIVYVSIHHKNTEKVAKVIAEVLNARLVKPWEIKPEELLKYDLIGFGSGIYYWKHHRALFELINKLPKVEGKKAFIFSTAGLNIPFINHRKLRKVLREKGFEIVGEFSCRGWDTNGWLAEIGGLNKGHPNEKDLENARKFAENLKASI,soluble
5,MSHLALKDLFSGFFVIDDEEEVEVPDKQQQVNEAPAKEQSQQTTKQNAIKSVPQKSASRYTTTSEERNNRMSNYSKNNSRNVVTMNNATPNNASQESSKMCLFEPRVFSDTQDIADELKNRRATLVNLQRIDKVSAKRIIDFLSGTVYAIGGDIQRVGTDIFLCTPDNVEVAGSITDHIENMEHSFDLEHHHHHH,not soluble
6,MENKMVEYRKKFGLSQEKLAEKLGVSRQTIISIEKGKYDPSLPLAFEIAKTFQTTIEHVFIYEGKEGEE,not soluble
7,MGSDKIHHHHHHMKRCPNCGCRGQAAFPEHVPGQVQYGPRLHAFTTLLNVGHFIPLERVTQLTDALFGASISDGTVALNINLASERLEPFEDDLKTGLRQQAVLHADETGAKVNGKLNWFHVACFARGTLYTLHEKRGYAALEAAGVLTDFTGVVVHDAWSTYFRLPGEHALCNAHLLRELRKLDEHDRQPWAGELRRALQQVYHAQKTGTLTDEQRAVFYTRFDELVLAGLEANPVQEPVPKRRGKPKQLPGRNLALRCQQHRAAMLLFLERADVPFDNNQAERDIRMACVKRKVSGGFRSEVGGQAFCRVRSFISTLQKQGLSVWTGLVDVFRGVLPKLDFSC,not soluble
8,GPGSMERIPLVVRRMVAAEQSCGFVHFFASLADASATPLVIEAKAFSSAAAGGAADDAAPTYQLVYDVMRSRNGHILFKKSYAERFTHSLALAAPVHALPAQLRSLVQSRLQAYIESPGVYLDGATERNVKLLSWIPATAASTTQEEAFPIPGIVMLVKSSYPSESMYREGAKLGLLFNAHRTNPNAKVAQMGLRDRANAYLAENDVYEVLLVHDAADAYLVPEGSRSNYLLQKSDGTWWCSAEEDILVGITLKTTYRVVQACGLGSVQHAKLTLKDILESKSLFILGTSPTIMPVQSVLLYRDTETRRLYEEAVRGLGTTAGTVQQVSDDKAELLFPVNVELAAALRAQYFAEAASS,not soluble
9,MNQILNKLQHIKPIEIIIVADDRMSAIQSIPTFVECNVVVIEEKNKWKAPVHGAKVANGDVVLFLDGEDVIFSVELERFIEPLLKKEQDVILNNIDSVCFEKMRVEWPSIAMVYRKIVNDVLGRMDLKYDSMLSMPYAITKKAIKDIGYDILQNPILSQVTLIEKGWPLHSSSAITNTSLNNITSNNTSFYKNELTKLEVCEIKENVKALESWLQRKDDRGNYTDGGRKREVIEQLKKQKNYSLFHKGWGMNSSIYNGKQLSIIIPAQNEEATIKEVILEARKIEPKEIIVVINGSTDQTEAIAKQLGATVIVYEEALGHDVGRAIGAQEATGDILLFIDADFAIPAKDLHPLTKAVVDGVDIALNDLNLNLRFPLYIVNLYKYMLNIACNRKDLGVGSTIAVPHAISRKCLEGIGWDTLHTSCVAQVKAILEGYKVECVHFVDVMKPNRIRPQEHFATIGHPPAVLRITGDHLEGLSYLLKHRDFKDLF,not soluble
10,MAHHHHHHMNPNQPPRRKTAFNEEFDVMQAIQEDRMAYHASIACHERCVHNYFFNNFYWREKTCMDNCLDKINQATVITNINYGKFEDVESKK,not soluble
11,MSLAADYTEQDAMRVQAVKTYIDNVLQEGRSQIKTTPLLADGINTTTRKPVEWIYPDGRTATISNFANQQNFLRALTAMSVVTEDQRYQLEAVRITRYFMDNFIADNGLFYWGGHRFVNLDTLELEGPQNKNSVHELKNHYPYYPFLYHVDPHATERYIKAFWQAHVEDWQSLDMGRHGSYSKNYDDKVFHRPIPASLVDQSKLPIMPETKGLTFINAGSDLIYAAYQLDWLAPSANAQGSAAWGQYLMTQYKLAKHPKTGAPVYQFTSPKKREWPPQSDKDTNSKYGDRAARQFGPELGNIAREGNVLFKSNDKSIVFNNALIELHLAEQRNDAAIREQVVDALLNFYRLAYNPENGTIKPIFSDGTSIEGIPLARDGYYGPKGRVFNAHKPKTEEYLLPILRAYRLQADPELWQLAANMTHHYGWGSLGNDAKAKPTLNMQLSSVSPMTLFSAIELYQITQQPEYLEFARAAADKLVEKRFVRGYFLANPRYLNASIDAIEPLALLTLDATLKGKTAQVAPYLSGSGYIHGEFAGKENAYDTNEIYKQTREGHHHHHH,soluble
12,MGSDKIHHHHHHMFEMGIQELVKTIDTNINHMISLSVLNLAQLGIKYGIFKAVASRPSYEELLSQIPVPNKPLLKKLIEHLKALGIIEETPSNLILNGFSYVLKFPKEDYMLLLSDWIPIWEEIYKMVDFALISYSHPYVLMDFDKDADFWDIRLSSSFNKTYRDAIINLGEIREDSYILDLGCGSVSPAYFGKFISEDGKYVGVDYSPGLLEIARERVERNGLPAELKEMDVSLIRTRSKYDVAIMSFLLEYVRDREEVLGKVLEALDSGGKLIIVEAFRDEFENIQAMEFFESLNRSFVGYPAKAEIKKAILREGFDVSFEDYGKSILVVRKL,not soluble
13,MRQKLGNTDQAADLVQDTFIKLLQTRDELFGIKEPRAYLTSIAKNLLIDQVRRKRIEQAYLDGLSQMKYMLDAVASPEDQMQIIQAINQLCKALEGVSEKAQQAFILHYLEGYTHKEIAERLNVSTKMIQKYLASCLIQCYQNRQDMDACI,not soluble
14,MTVLLSKRAINILLMLLDLEGSITTQELAESFTVSVRTIKYDLEDIRAWFEQHDETLYSKRNKGIWLDLPDSKRLLLKNEIIDVDRFETYPDQKRRVNVLIFQLLSVKGYLTAQQLADELLVSRNTIVSDLEQVERLLQAYDLTLIRQARQGFTISGEESNVRLLMEFITQKELTEYDIYQIMNYVTKTKGAEKIPKIKFGSGTLFQGCYRSALKKMRNLINPLDQNQFDYAEILSITLRVAIAAARMQMAHTIGTYRVLSQKTRFEQRNEVPLLLLQEVFERYDLPLLADEYFYIYSDLFGTHQRQDMVQLTKQVIESVSKELNYPFVNDRQLFTNLFAHLSLRFTKKHLFINEYNPFSEEIKGKHPALFLAIQSACKQLIQRSVLLVNDSFCAYIALHFLAAQERQQQEAKVVRIVYVCSTGLGVTSLIEQKILEEVPNVELAGFASVLNATEVIQAEKPDLVLSIFPIEEMTYPFIKVSPLLTDTDLSLIREEVDKILLGKRQGKGTARSTKSDVIEKNERIQSQDLLVKAYIIYEELKRMFQTKLLSEYQEAFLLHVLLMTHRITFNKQYEEIPCNREVSHERQEEIRQIECLFAKNELPVNHAEISALLNYLEQPKEEEDGTSNGSTGDHSTKC,not soluble
15,MSLGENVEFKEFLGNFHLKEGRFRQLACQMNHRIIMGKGVALYVVGVSDSGEIKGIDENKFSETIEVLKKLATEIEAEVSSVERHEVNGGYVGLVEIRKTKAKEHILVGTAGHVDHGKSTLVGCLITGKPDDGDGATRVYLDVLKHEIERGLSAEISFAVFGYKDGKVLRMKNPLSKAEKAMVVETADKLVSFVDTVGHEPWLRTTIRGLLGQKVDYGLLVVAANDGVMRTTKEHLGIMLAMDLPVIVAVTKADMVDDARLSEVLQEISATLRRVGRVPTVLKSRHDARKAAEMVKSNKLLVPVVITSAVTLEGYDILEEIFLHLPKRYTADEDFLMYIDKIYSVTGVGTVVSGSVKSGELAEGDEVYIGPFQDGSFRRVRIQSIEMHHYRIDRAKAGDIIGAAVKGVRYDELRRGMVISRKEPRAVWEFDAEIYVFTHPTLISVGYEPVMHVETISETVTFVEMDKEYLKPGDRGIVRMKFKYHPHFVYEGQKFIFREGRSKGMGEIIRVFEGHHHHHH,soluble
16,GMTASTAPQTEPHKTSAPESGPVMLLVATIKGAWFLASDPARRTWELRGPVFLGHTIHHIVQDPREPERMLMAARTGHLGPTVFRSDDGGGNWTEATRPPAFNKAPEGETGRVVDHVFWLTPGHASEPGTWYAGTSPQGLFRSTDHGASWEPVAGFNDHPMRRAWTGGEQDGTPDGPKMHSILVDPRDPKHLYIGMSSGGVFESTDAGTDWKPLNRGCAANFLPDPNVEFGHDPHCVVQHPAAPDILYQQNHCGIYRMDRREGVWKRIGDAMPREVGDIGFPIVVHQRDPRTVWVFPMDGSDVWPRVSPGGKPAVYVTRDAGESWQRQDRGLPTDQAWLTVKRQAMTADAHAPVGVYFGTTGGEIWASADEGEHWQCIASHLPHIYAVQSARPV,soluble
17,HSSGLVPRGSHMSQERILDGEEDEINHKIFDLKRTLKDNLPLDRDFIDRLKRYFKDPSDQVLALRELLNEKDLTAEQVELLTKIINEIISGSEKSVNAGINSAIQAKLFGNKMKLEPQLLRACYRGFIMGNISTTDQYIEWLGNFGFNHRHTIVNFVEQSLIVDMDSEKPSCNAYEFGFVLSKLIAIKMIRTSDVIFMKKLESSSLLKDGSLSAEQLLLTLLYIFQYPSESEQILTSVIEVSRASHEDSVVYQTYLSSVNESPHDIFKSESEREIAINILRELVTSAYKKELSR,soluble
18,AMAISITCPPPMSVEHADIWVKSYSLYSRERYICNSGFKRKAGTSSLTECVLNKATNVAHWTTPSLKCIRDPALVHQRPAPPSTVTTAGVTPQPESLSPSGKEPAAS,soluble
